± gives the uncertainty stated by the source.

Results on 78 sequences are retold here after the supplement of paper PMC7877785.

The nature of the data set: self-splicing fitness, log relative to wild type (ln ratio); higher = more splicing; Tetrahymena group I intron in knt gene, E. coli kanamycin selection, DiMSum; sequences stand for … in CUCUCU…GGAGGGAAAAGUUAUCAGGCAUGCACCUGGUAGCUAGUCUUUAAACCAAUAGAUUGCAUCGGUUUAAAAGGCAAGACCGUCAAAUUGCGGGAAAGGGGUCAACAGCCGUUCAGUACCAAGUCUCAGGGGAAACUUUGAGAUGGCCUUGCAAAGGGUAUGGUAAUAAGCUGACGGACAUGGUCCUAACCACGCAGCCAAGUCCUAAGUCAACAGAUCUUCUGUUGAUAUGGAUGCAGUUCACAGACUAAAUGUCGGUCGGGGAAGAUGUAUUCUUCUCAUAAGAUAUAGUCGGACCUCUCCUUAAUGGGAGCUAGCGGAUGAAGUGAUGCAACACUGGAGCCGCUGGGAACUAAUUUGUAUGCGAAAGUAUAUUGAUUAGUUUUGGAGUACUCGUGGUCG
The method in brief:
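DiMSum derived fitness as the error-weighted combination of fold changes across replicates, kanamycin versus no kanamycin, normalised to wild type. E. coli BL21(DE3) held the library, which randomised all eight P1ex-region intron nucleotides within the knt kanamycin-resistance gene on pET-22b(+). Six replicate transformations grew overnight at 37°C or 30°C on LB agar with or without 25 μg/mL kanamycin, also containing 100 μg/mL carbenicillin, 50 μM IPTG and 0.2% rhamnose, and pooled colonies were amplicon-sequenced on an Illumina HiSeq 2500.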

As to UUCCAGCAAUAUUACGAGUU, the “self-splicing fitness (ln)” value was -3.21 ± 0.13 (30 °C) and -1.6 ± 0.092 (37 °C).
In the case of UUCCAGCAAUAUUACGAUAA, the “self-splicing fitness (ln)” value came out at 0.0765 ± 0.06 (30 °C) and 0.459 ± 0.071 (37 °C).
For UUCCAGCAAUAUUACGAUGC, in that order: -3.4 ± 0.23 and -2.79 ± 0.23.
On to UUCCAGCAAUAUUACGCCCC, for which the “self-splicing fitness (ln)” value (30 °C) is -2.4 ± 0.25.
For UUCCAGCAAUAUUACGCCCG, the “self-splicing fitness (ln)” value runs as follows: (30 °C) -1.33 ± 0.15; (37 °C) -1.23 ± 0.17.
As for UUCCAGCAAUAUUACGCCGA, the “self-splicing fitness (ln)” value was -0.126 ± 0.13 (30 °C) and 0.309 ± 0.16 (37 °C).
Turning to UUCCAGCAAUAUUACGCCGG, the “self-splicing fitness (ln)” value runs as follows: (30 °C) -3.4 ± 0.33; (37 °C) -2.98 ± 0.48.
As for UUCCAGCAAUAUUACGCGCU, the “self-splicing fitness (ln)” value (30 °C) is -3.9 ± 0.3.
Regarding UUCCAGCAAUAUUACGCGGC, the “self-splicing fitness (ln)” value is -3.73 ± 0.47 (30 °C) and -1.38 ± 0.4 (37 °C).
For UUCCAGCAAUAUUACGCUAG, in that order: -2.89 ± 0.17 and -1.96 ± 0.2.
UUCCAGCAAUAUUACGCUCU: the “self-splicing fitness (ln)” value was -3.04 ± 0.17 (30 °C) and -1.26 ± 0.14 (37 °C).
For UUCCAGCAAUAUUACGGAAA, the “self-splicing fitness (ln)” value reads like this: (30 °C) -1.86 ± 0.13; (37 °C) -1.34 ± 0.11.
In the case of UUCCAGCAAUAUUACGGCCG, the “self-splicing fitness (ln)” value by setting is: (30 °C) -2.49 ± 0.29; (37 °C) -0.492 ± 0.24.
Consider UUCCAGCAAUAUUACGGCGA, for which the “self-splicing fitness (ln)” value reads like this: (30 °C) -0.331 ± 0.076; (37 °C) -0.0354 ± 0.097.
For UUCCAGCAAUAUUACGGCGU, in that order: -1.42 ± 0.079 and -1.19 ± 0.091.
For UUCCAGCAAUAUUACGGUGA, in that order: -0.226 ± 0.061 and 0.234 ± 0.077.
For UUCCAGCAAUAUUACGUAAC the same measures were -2.44 ± 0.25 and -2.08 ± 0.38.
With UUCCAGCAAUAUUACGUCGG, the “self-splicing fitness (ln)” value (30 °C) was -3.28 ± 0.23 and the “self-splicing fitness (ln)” value (37 °C) was -3.13 ± 0.4.
In the case of UUCCAGCAAUAUUACGUGAA, the “self-splicing fitness (ln)” value was 0.179 ± 0.072 (30 °C) and -0.102 ± 0.094 (37 °C).
For UUCCAGCAAUAUUACGUGCG the same measures were -1.88 ± 0.1 and -1.59 ± 0.11.
Turning to UUCCAGCAAUAUUACGUGUC, the “self-splicing fitness (ln)” value was -2.18 ± 0.086 (30 °C) and -1.48 ± 0.098 (37 °C).
For UUCCAGCAAUAUUACGUUAA, in that order: -1.16 ± 0.079 and 0.606 ± 0.093.
In the case of UUCCAGCAAUAUUACGUUCG, the “self-splicing fitness (ln)” value runs as follows: (30 °C) -2.67 ± 0.16; (37 °C) -1.7 ± 0.23.
As to UUCCAGCAAUAUUACGUUGU, the “self-splicing fitness (ln)” value (30 °C) is -2.93 ± 0.21 and the “self-splicing fitness (ln)” value (37 °C) is -2.74 ± 0.27.
For the sequence UUCGAGCAAUAUUACGAAUG, the “self-splicing fitness (ln)” value (30 °C) is -3.37 ± 0.47 and the “self-splicing fitness (ln)” value (37 °C) is -2.26 ± 0.31.
For UUCGAGCAAUAUUACGAGAG, in that order: -3.55 ± 0.44 and -2.72 ± 0.48.
For UUCGAGCAAUAUUACGAGCC, in that order: -3.05 ± 0.21 and -2.68 ± 0.36.
Consider UUCGAGCAAUAUUACGAGUG, for which the “self-splicing fitness (ln)” value was -1.81 ± 0.17 (30 °C) and -0.223 ± 0.15 (37 °C).
For UUCGAGCAAUAUUACGCCCA, the “self-splicing fitness (ln)” value reads like this: (30 °C) -2.1 ± 0.31; (37 °C) -1.15 ± 0.22.
For UUCGAGCAAUAUUACGCCUC, in that order: -3.3 ± 0.4 and -1.3 ± 0.4.
For UUCGAGCAAUAUUACGCGAC the same measures were -3.69 ± 0.32 and -1.18 ± 0.19.
With UUCGAGCAAUAUUACGGCCA, the “self-splicing fitness (ln)” value (37 °C) is -0.028 ± 0.31.
Same read-out and setting: in the case of UUCGAGCAAUAUUACGGCCG it was -1.41 ± 0.35.
Regarding UUCGAGCAAUAUUACGGCCU, the “self-splicing fitness (ln)” value was -3.17 ± 0.33 (30 °C) and -2.84 ± 0.35 (37 °C).
For UUCGAGCAAUAUUACGGGCC the same measures were -3.79 ± 0.32 and -2.21 ± 0.33.
For UUCGAGCAAUAUUACGGGGA, in that order: -1.7 ± 0.18 and -0.829 ± 0.19.
For UUCGAGCAAUAUUACGGGGG, in that order: -2.88 ± 0.3 and -2.23 ± 0.42.
Turning to UUCGAGCAAUAUUACGUAAA, the “self-splicing fitness (ln)” value (30 °C) is -2.48 ± 0.19 and the “self-splicing fitness (ln)” value (37 °C) was -1.07 ± 0.16.
For UUCGAGCAAUAUUACGUAAU the same measures were -2.06 ± 0.26 and -1.9 ± 0.36.
With UUCGAGCAAUAUUACGUAGA, the “self-splicing fitness (ln)” value by setting is: (30 °C) -3.11 ± 0.16; (37 °C) -1.97 ± 0.17.
For UUCGAGCAAUAUUACGUCAA, in that order: -1.54 ± 0.2 and -2.38 ± 0.37.
As for UUCGAGCAAUAUUACGUCCU, the “self-splicing fitness (ln)” value reads like this: (30 °C) -3.78 ± 0.47; (37 °C) -2.4 ± 0.41.
For UUCGAGCAAUAUUACGUGAA the same measures were -1.55 ± 0.27 and 1.01 ± 0.28.
Turning to UUCGAGCAAUAUUACGUGGU, the “self-splicing fitness (ln)” value is -3.49 ± 0.28 (30 °C) and -3.18 ± 0.2 (37 °C).
For the sequence UUCUAGCAAUAUUACGAACA, the “self-splicing fitness (ln)” value (37 °C) was -0.35 ± 0.37.
Take UUCUAGCAAUAUUACGACUA: the “self-splicing fitness (ln)” value runs as follows: (30 °C) -1.83 ± 0.31; (37 °C) -1.19 ± 0.21.
With UUCUAGCAAUAUUACGAUGA, the “self-splicing fitness (ln)” value was -0.819 ± 0.19 (30 °C) and -0.0657 ± 0.2 (37 °C).
For UUCUAGCAAUAUUACGAUGG the same measures were -2.49 ± 0.19 and -1.02 ± 0.34.
For UUCUAGCAAUAUUACGAUUC, in that order: -1.98 ± 0.34 and -2.5 ± 0.49.
For UUCUAGCAAUAUUACGCACU, in that order: -1.79 ± 0.29 and -1.69 ± 0.38.
Consider UUCUAGCAAUAUUACGCAGG, for which the “self-splicing fitness (ln)” value (30 °C) is -3.52 ± 0.4.
UUCUAGCAAUAUUACGCCGA: the “self-splicing fitness (ln)” value reads like this: (30 °C) -0.96 ± 0.23; (37 °C) 0.163 ± 0.25.
Consider UUCUAGCAAUAUUACGCGAC, for which the “self-splicing fitness (ln)” value (30 °C) was -1.97 ± 0.38.
In the case of UUCUAGCAAUAUUACGCGGG, the “self-splicing fitness (ln)” value is, setting by setting: (30 °C) -3.28 ± 0.23; (37 °C) -2.29 ± 0.22.
For UUCUAGCAAUAUUACGCGUC the same measures were -3.14 ± 0.39 and -1.45 ± 0.25.
UUCUAGCAAUAUUACGCUUA: the “self-splicing fitness (ln)” value was -1.24 ± 0.12 (30 °C) and -0.839 ± 0.14 (37 °C).
For UUCUAGCAAUAUUACGCUUU the same measures were -3.89 ± 0.26 and -1.82 ± 0.22.
Regarding UUCUAGCAAUAUUACGGAAA, the “self-splicing fitness (ln)” value (37 °C) was -1.4 ± 0.45.
As for UUCUAGCAAUAUUACGGAUU, the “self-splicing fitness (ln)” value is, setting by setting: (30 °C) -2.7 ± 0.15; (37 °C) -0.761 ± 0.14.
Take UUCUAGCAAUAUUACGGCUG: the “self-splicing fitness (ln)” value (30 °C) is -2.38 ± 0.21 and the “self-splicing fitness (ln)” value (37 °C) is -1.6 ± 0.2.
For UUCUAGCAAUAUUACGGGAA the same measures were -2.38 ± 0.19 and -2.8 ± 0.28.
For UUCUAGCAAUAUUACGUAUC the same measures were -3.32 ± 0.27 and -2.05 ± 0.22.
As for UUCUAGCAAUAUUACGUCCA, the “self-splicing fitness (ln)” value runs as follows: (30 °C) -2.13 ± 0.19; (37 °C) -0.134 ± 0.17.
For UUCUAGCAAUAUUACGUCUA the same measures were -3.64 ± 0.26 and -2.2 ± 0.17.
With UUCUAGCAAUAUUACGUUGG, the “self-splicing fitness (ln)” value (30 °C) is -2.65 ± 0.24.
Regarding UUGAAGCAAUAUUACGAACA, the “self-splicing fitness (ln)” value was 0.602 ± 0.15 (30 °C) and -0.488 ± 0.23 (37 °C).
Consider UUGAAGCAAUAUUACGAAUC, for which the “self-splicing fitness (ln)” value by setting is: (30 °C) -3.58 ± 0.37; (37 °C) -2.12 ± 0.32.
For UUGAAGCAAUAUUACGACAG the same measures were 0.483 ± 0.091 and 0.232 ± 0.11.
For UUGAAGCAAUAUUACGACCA the same measures were -0.132 ± 0.12 and 0.61 ± 0.15.
For UUGAAGCAAUAUUACGACUC the same measures were -1.26 ± 0.079 and -0.526 ± 0.11.
On to UUGAAGCAAUAUUACGACUU, for which the “self-splicing fitness (ln)” value (30 °C) was -1.37 ± 0.14 and the “self-splicing fitness (ln)” value (37 °C) amounted to 0.101 ± 0.17.
For UUGAAGCAAUAUUACGAGUA, in that order: -1.83 ± 0.077 and -0.59 ± 0.085.
UUGAAGCAAUAUUACGAUCU: the “self-splicing fitness (ln)” value is -1.3 ± 0.13 (30 °C) and -0.67 ± 0.14 (37 °C).
As for UUGAAGCAAUAUUACGCACG, the “self-splicing fitness (ln)” value is -0.255 ± 0.15 (30 °C) and -0.521 ± 0.15 (37 °C).
In the case of UUGAAGCAAUAUUACGCACU, the “self-splicing fitness (ln)” value is, setting by setting: (30 °C) -0.156 ± 0.091; (37 °C) 0.362 ± 0.1.
For UUGAAGCAAUAUUACGCCGG, the “self-splicing fitness (ln)” value (30 °C) was -0.0467 ± 0.11 and the “self-splicing fitness (ln)” value (37 °C) is 0.0153 ± 0.15.
For UUGAAGCAAUAUUACGCCGU, in that order: -1.33 ± 0.15 and -0.893 ± 0.18.
Consider UUGAAGCAAUAUUACGCUAC, for which the “self-splicing fitness (ln)” value (37 °C) is -1.75 ± 0.37.
